The values that follow come from article PMC6218473, “Recognition of host Clr-b by the inhibitory NKR-P1B receptor provides a basis for missing-self recognition” (Nature Communications, 2018).

The target of data set [1] is Clr-b residues 74-194, E. coli expressed and refolded (mouse) (UniProt Q91V08). Nature of the data set: AUC; sedimentation velocity, Clr-b alone at higher concentrations (25–200 μM); 10 mM Tris-HCl pH 8.0, 0.15 M NaCl, 20 °C; monomer to dimer.
Data set [2] has the same target. Nature of the data set: crystal structure; Clr-b and NKR-P1B^B6 mixed 1:1, 5 mg/ml; 21% PEG 3350, 0.1 M Bis/Tris pH 5.9, 5% glycerol, 0.2 M ammonium sulfate, 20 °C; 2.9 Å.
The target of another data set is NKp65 (Homo sapiens) (UniProt D3W0D1). The following applies: cited from earlier work.
In data set [3] the target is extended Clr-b, C-terminally extended version terminating at Ser207, His-tagged (mouse) (UniProt Q91V08). Nature of the data set: AUC; sedimentation velocity, 120 μM each of extended Clr-b and NKR-P1B constructs, alone and in combination; 10 mM Tris-HCl pH 8.0, 0.15 M NaCl, 20 °C.
For data set [4], the target named is T1, NKR-P1B (B6 allele) C-type lectin-like domain with C-terminal BirA tag and His tag, biotinylated monomer (mouse, UniProt Q99JB4 89-215, biotin on the BirA tag).
T1 chain: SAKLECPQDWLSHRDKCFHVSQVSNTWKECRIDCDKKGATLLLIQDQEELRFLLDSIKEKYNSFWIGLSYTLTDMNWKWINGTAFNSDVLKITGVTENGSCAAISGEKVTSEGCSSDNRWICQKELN
Nature of the data set: SPR. A general note: Surface plasmon resonance follows binding to a sensor surface in real time, without labels.

Data set [5] concerns the molecule itself. Nature of the data set: crystal structure; Clr-b and NKR-P1B^B6 mixed 1:1, 5 mg/ml; 21% PEG 3350, 0.1 M Bis/Tris pH 5.9, 5% glycerol, 0.2 M ammonium sulfate, 20 °C; 2.9 Å.

Chain of extended Clr-b, C-terminally extended version terminating at Ser207, His-tagged (mouse) (Q91V08 74-207): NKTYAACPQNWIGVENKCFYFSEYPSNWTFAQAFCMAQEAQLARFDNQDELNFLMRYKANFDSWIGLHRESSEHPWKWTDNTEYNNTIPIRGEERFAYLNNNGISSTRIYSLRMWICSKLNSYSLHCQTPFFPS
Chain of NKp65 (Homo sapiens) (D3W0D1 whole entry): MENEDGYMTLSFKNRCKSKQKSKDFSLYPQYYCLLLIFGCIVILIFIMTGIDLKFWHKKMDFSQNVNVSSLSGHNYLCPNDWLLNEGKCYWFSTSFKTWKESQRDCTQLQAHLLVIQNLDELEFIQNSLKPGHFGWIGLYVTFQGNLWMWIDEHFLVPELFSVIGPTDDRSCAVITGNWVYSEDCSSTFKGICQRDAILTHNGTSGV

A word on the stoichiometry N: it is the number of molecules, sites or subunits per partner or assembly. With “Clr-b residues 74-194, E. coli expressed and refolded (from UniProt Q91V08 74-194) (domain or fragment)”, the stoichiometry N in data set [1] and in data set [2] was 2 each time.

As a reminder, the Kd is the concentration at which binding is half-saturated. Turning to KACL (from UniProt Q6UVW9), the Kd with NKp65 (Homo sapiens) is 0.0007 µM.

Regarding “extended NKR-P1B (B6 allele) containing the membrane proximal stalk, starting from Gln72, His-tagged (from UniProt Q99JB4 72-223) (domain or fragment)”, in data set [3], the fraction of total in the species of the complex stood at 6% and the stoichiometry N (NKR-P1B per Clr-b chain) stood at 0.5.

B1: m12, mouse cytomegalovirus-encoded decoy ligand (ligand)
chain: TNVLAAPKNTSCVKKFTVSERRPPPEPGKCMSLLGSTLVNKQAANKQVDKPVTILKIFRCPVEEYLCMNATWSGRLFVRTQDNREIIFGNISFTSTDSSPTTLTGISTLKPWPLSSDLWIHSGTGDIYMFSNASFSDPKCYITLCVLRKNAHIPVQRANFAFGVTDENLVTPTSTRTVDN
In data set [4], B1 yielded a Kd of 21.6 µM.

B2: NKR-P1B (B6 allele) C-type lectin-like domain, His-tagged (domain or fragment, mouse)
chain: SAKLECPQDWLSHRDKCFHVSQVSNTWKECRIDCDKKGATLLLIQDQEELRFLLDSIKEKYNSFWIGLSYTLTDMNWKWINGTAFNSDVLKITGVTENGSCAAISGEKVTSEGCSSDNRWICQKELN
modifications: N-acetylglucosamine on Asn169 (seen in the structure)
notes: NKR-P1B, B6 (C57BL/6) allele of Klrb1b, mouse, C-type lectin-like domain; Construct for structural and AUC experiments; also called ectodomain of NKR-P1B^B6
In turn, B2 returned a stoichiometry N (NKR-P1B per Clr-b chain) in data set [2] of 0.5. Also, in data set [5], the “stoichiometry N” value amounted to 2.
